7 sequences from the supplement of paper PMC11316812 can be followed below.

± gives the standard deviation of the averaged measurements.

The subject of one series is MCF7. The experiment in a line: percentage of EdU-negative (G0-arrested) nuclei per well, 72 h; higher = more G0 arrest. The note with it: reference: sequence is the full UniProt precursor, the tested protein was the secreted form or ectodomain.
In another series the test system is hTERT-HMEC. The series is described as above. The note with it: reference: sequence is the full UniProt precursor, the tested protein was the secreted form or ectodomain.
Setting [1] is: protein concentration 0.03125 µM.
[2] abbreviates: protein concentration 0.3125 µM.
Setting [3] is: protein concentration 0.0282857 µM.
The mark [4] stands for this setting: protein concentration 0.282857 µM.
[5] abbreviates: protein concentration 0.0225 µM.
Where [6] appears, read: protein concentration 0.00857143 µM.
The mark [7] stands for this setting: protein concentration 0.0857143 µM.
[8] abbreviates: protein concentration 0.01547 µM.
The mark [9] stands for this setting: protein concentration 0.1547 µM.
The mark [10] stands for this setting: protein concentration 0.021325 µM.
Setting [11] is: protein concentration 0.21325 µM.
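Also: secreted proteins added to cultured cells, EdU pulse at the end, nuclei found by Hoechst imaging, EdU status from nuclear versus surrounding ring intensity ratio, PBS as neutral control.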

In the case of “MSSSCSGLSRVLVAVATALVSASSPCPQAWGPPGVQYGQPGRSVKLCCPGVTAGDPVSWFRDGEPKLLQGPDSGLGHELVLAQADSTDEGTYICQTLDGALGGTVTLQLGYPPARPVVSCQAADYENFSCTWSPSQISGLPTRYLTSYRKKTVLGADSQRRSPSTGPWPCPQDPLGAARCVVHGAEFWSQYRINVTEVNPLGASTRLLDVSLQSILRPDPPQGLRVESVPGYPRRLRASWTYPASWPCQPHFLLKFRLQYRPAQHPAWSTVEPAGLEEVITDAVAGLPHAVRVSARDFLDAGTWSTWSPEAWGTPSTGTIPKEIPAWGQLHTQPEVEPQVDSPAPPRPSLQPHPRLLDHRDSVEQVAVLASLGILSFLGLVAGALALGLWLRLRRGGKDGSPKPGFLASVIPVDRRPGAPNL”, the “percentage of EdU-negative” value in the series with MCF7 (setting [1]) worked out at 26.9 ± 2%; with MCF7 (setting [2]), 36.6 ± 0.72%; with hTERT-HMEC (setting [1]), 4.53 ± 0.46%; with hTERT-HMEC (setting [2]), 11.8 ± 0.14%.
“MSSWSRQRPKSPGGIQPHVSRTLFLLLLLAASAWGVTLSPKDCQVFRSDHGSSISCQPPAEIPGYLPADTVHLAVEFFNLTHLPANLLQGASKLQELHLSSNGLESLSPEFLRPVPQLRVLDLTRNALTGLPPGLFQASATLDTLVLKENQLEVLEVSWLHGLKALGHLDLSGNRLRKLPPGLLANFTLLRTLDLGENQLETLPPDLLRGPLQLERLHLEGNKLQVLGKDLLLPQPDLRYLFLNGNKLARVAAGAFQGLRQLDMLDLSNNSLASVPEGLWASLGQPNWDMRDGFDISGNPWICDQNLSDLYRWLQAQKDKMFSQNDTRCAGPEAVKGQTLLAVAKSQ”: the “percentage of EdU-negative” value in the series with MCF7 (setting [3]) came to 22.3 ± 2.4%; with MCF7 (setting [4]), 25.7 ± 1.4%; in the series on hTERT-HMEC (setting [3]), 4.97 ± 0.88%; with hTERT-HMEC (setting [4]), 6.814 ± 0.037%.
With “MSVMKPCLMTIAILMILAQKTPGGLFRSHNGKSREPWNPCELYQGMCRNACREYEIQYLTCPNDQKCCLKLSVKITSSKNVKEDYDSNSNLSVTNSSSYSHI [Q30KQ4]”, the “percentage of EdU-negative” value in the series with MCF7 (setting [5]) amounted to 25.4 ± 1.7%; in the series on MCF7 (protein concentration 0.225 µM) it was 23.5 ± 1.3%; in the series on hTERT-HMEC (setting [5]), 5.55 ± 0.29%; in the series on hTERT-HMEC (protein concentration 0.225 µM) it was 5.56 ± 0.81%.
On to “MSVPLLKIGVVLSTMAMITNWMSQTLPSLVGLNTTKLSAAGGGTLDRSTGVLPTNPEESWQVYSSAQDSEGRCICTVVAPQQTMCSRDARTKQLRQLLEKVQNMSQSIEVLDRRTQRDLQYVEKMENQMKGLESKFKQVEESHKQHLARQFKAIKAKMDELRPLIPVLEEYKADAKLVLQFKEEVQNLTSVLNELQEEIGAYDYDELQSRVSNLEERLRACMQKLACGKLTGISDPVTVKTSGSRFGSWMTDPLAPEGDNRVWYMDGYHNNRFVREYKSMVDFMNTDNFTSHRLPHPWSGTGQVVYNGSIYFNKFQSHIIIRFDLKTETILKTRSLDYAGYNNMYHYAWGGHSDIDLMVDESGLWAVYATNQNAGNIVVSRLDPVSLQTLQTWNTSYPKRSAGEAFIICGTLYVTNGYSGGTKVHYAYQTNASTYEYIDIPFQNKYSHISMLDYNPKDRALYAWNNGHQILYNVTLFHVIRSDEL”, for which the “percentage of EdU-negative” value came out at 25.5 ± 3.5% in the series on MCF7 (setting [6]), 29.3 ± 2.1% with MCF7 (setting [7]), 4.93 ± 0.14% in the series with hTERT-HMEC (setting [6]) and 9.49 ± 1.4% in the series with hTERT-HMEC (setting [7]).
In the case of “MSWSLHPRNLILYFYALLFLSSTCVAYVATRDNCCILDERFGSYCPTTCGIADFLSTYQTKVDKDLQSLEDILHQVENKTSEVKQLIKAIQLTYNPDESSKPNMIDAATLKSRKMLEEIMKYEASILTHDSSIRYLQEIYNSNNQKIVNLKEKVAQLEAQCQEPCKDTVQIHDITGKDCQDIANKGAKQSGLYFIKPLKANQQFLVYCEIDGSGNGWTVFQKRLDGSVDFKKNWIQYKEGFGHLSPTGTTEFWLGNEKIHLISTQSAIPYALRVELEDWNGRTSTADYAMFKVGPEADKYRLTYAYFAGGDAGDAFDGFDFGDDPSDKFFTSHNGMQFSTWDNDNDKFEGNCAEQDGSGWWMNKCHAGHLNGVYYQGGTYSKASTPNGYDNGIIWATWKTRWYSMKKTTMKIIPFNRLTIGEGQQHHLGGAKQVRPEHPAETEYDSLYPEDDL”, the “percentage of EdU-negative” value came out at 24 ± 1.3% with MCF7 (setting [8]), 25 ± 2% in the series with MCF7 (setting [9]), 5.07 ± 0.17% in the series with hTERT-HMEC (setting [8]) and 5.92 ± 0.15% in the series with hTERT-HMEC (setting [9]).
In the case of “MTALFLMSMLFGLTCGQAMSFCIPTEYTMHIERRECAYCLTINTTICAGYCMTRDINGKLFLPKYALSQDVCTYRDFIYRTVEIPGCPLHVAPYFSYPVALSCKCGKCNTDYSDCIHEAIKTNYCTKPQKSYLVGFSV”, the “percentage of EdU-negative” value came to 27.8 ± 3.8% in the series on MCF7 (protein concentration 0.017 µM), 27.2 ± 1.9% in the series with MCF7 (protein concentration 0.17 µM), 5.28 ± 0.69% with hTERT-HMEC (protein concentration 0.017 µM) and 9.97 ± 1.1% in the series on hTERT-HMEC (protein concentration 0.17 µM).
Take “MTAPGAAGRCPPTTWLGSLLLLVCLLASRSITEEVSEYCSHMIGSGHLQSLQRLIDSQMETSCQITFEFVDQEQLKDPVCYLKKAFLLVQDIMEDTMRFRDNTPNAIAIVQLQELSLRLKSCFTKDYEEHDKACVRTFYETPLQLLEKVKNVFNETKNLLDKDWNIFSKNCNNSFAECSSQDVVTKPDCNCLYPKAIPSSDPASVSPHQPLAPSMAPVAGLTWEDSEGTEGSSLLPGEQPLHTVDPGSAKQRPPRSTCQSFEPPETPVVKDSTIGGSPQPRPSVGAFNPGMEDILDSAMGTNWVPEEASGEASEIPVPQGTELSPSRPGGGSMQTEPARPSNFLSASSPLPASAKGQQPADVTGTALPRVGPVRPTGQDWNHTPQKTDHPSALLRDPPEPGSPRISSLRPQGLSNPSTLSAQPQLSRSHSSGSVLPLGELEGRRSTRDRRSPAEPEGGPASEGAARPLPRFNSVPLTDTGHERQSEGSFSPQLQESVFHLLVPSVILVLLAVGGLLFYRWRRRSHQEPQRADSPLEQPEGSPLTQDDRQVELPV”: the “percentage of EdU-negative” value in the series with MCF7 (setting [10]) was found to be 21.9 ± 1.2%; in the series with MCF7 (setting [1]) it was 26.7 ± 0.3%; with MCF7 (setting [11]) it was 27.6 ± 1.4%; with MCF7 (setting [2]), 26 ± 0.57%; in the series on hTERT-HMEC (setting [10]) it was 5.8 ± 0.14%; with hTERT-HMEC (setting [1]), 4.68 ± 0.61%. Moreover, the entries for the “percentage of EdU-negative” value in the series with hTERT-HMEC (setting [11]) and in the series with hTERT-HMEC (setting [2]) were 6.92 ± 1.3% and 6.12 ± 1.1%, respectively.
